# B1: KCNA4 (parent)
# chain: YQLGEEALLKFREDEGFVREEEDR
# B2: CASP6 (parent)
# chain: TCADRDNLTRRFSDLGFEVKCFND
# Variants of: B1
# Assay: protein stability index of a GFP-peptide fusion (GPS, HEK-293T) (PSI 1-6); higher = more stable
# Conditions: c terminus: a fixed tail appended
# 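Further: lentivirally expressed fusions sorted by FACS into six bins by GFP to DsRed ratio, PSI derived from sequencing read proportions per bin multiplied by bin number.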
row,Variant,protein stability index
1,E20T,4.56
2,E20N,4.61
3,E20Q,4.44
4,E20F,3.64
5,E20D,4.38
6,E20L,3.9
7,E20M,4.06
8,E20V,4.14
9,E20S,4.45
10,E20G,3.93
11,E20H,4.49
12,E20K,4.13
13,E20A,3.63
14,E20C,4.05
15,E20P,4.3
16,E20R,4.1
17,E20Y,3.71
18,E20W,3.56
19,E20I,3.4
20,D14Y,3.59
21,D14L,4.08
22,D14T,3.98
23,D14M,4.27
24,D14S,3.56
25,D14K,3.45
26,D14Q,3.88

row,Variant,protein stability index
1,D14N,3.98
2,D14V,3.39
3,D14P,3.16
4,D14R,3.58
5,D14W,2.81
6,D23C,4.48
7,D23S,4.62
8,D23Y,4.46
9,D23R,4.39
10,D23Q,4.04
11,D23L,3.97
12,D23H,3.94
13,D23I,3.88
14,D23F,4.14
15,D23P,3.82
16,D23N,4.05
17,D23T,4.11
18,D23V,3.7
19,D23A,4.28
20,D23W,3.51
21,D23G,3.88
22,D23E,4.75
23,D23M,3.76
24,D23K,4.45
25,V18S,4.32
26,V18F,4.36

row,Variant,protein stability index
1,V18R,4.04
2,V18W,3.94
3,V18A,4.16
4,V18G,4.43
5,V18C,4.53
6,V18E,4.67
7,V18I,4.5
8,V18D,4.83
9,V18T,4.54
10,V18Y,4.63
11,V18N,4.82
12,V18K,4.13
13,V18P,4.63
14,V18H,4.36
15,V18Q,4.78
16,V18L,4.44
17,V18M,4.58
18,E21S,4.71
19,E21G,4.43
20,E21F,4.06
21,E21W,3.5
22,E21C,3.71
23,E21Q,4.21
24,E21D,4.4
25,E21H,4.18
26,E21L,3.07

row,Variant,protein stability index
1,E21M,4.21
2,E21A,4.45
3,E21Y,4
4,E21V,4.29
5,E21R,3.05
6,E21K,4.08
7,E21N,4
8,E21P,4.65
9,E21I,4.07
10,E21T,4.38
11,G16A,4.65
12,G16R,4.08
13,G16V,4.5
14,G16T,4.58
15,G16P,4.62
16,G16W,4.12
17,G16L,4.85
18,G16H,4.8
19,G16S,4.75
20,G16D,5.21
21,G16K,3.93
22,G16N,4.47
23,G16Y,4.04
24,G16M,4.48
25,G16Q,4.73
26,G16E,4.84

row,Variant,protein stability index
1,G16F,4.31
2,G16C,4.83
3,G16I,4.61
4,R19E,4.91
5,R19I,4.36
6,R19S,4.22
7,R19H,4.77
8,R19T,4.65
9,R19G,4.85
10,R19P,4.62
11,R19N,4.47
12,R19V,4.59
13,R19Y,4.51
14,R19A,4.91
15,R19K,4.05
16,R19Q,4.42
17,R19M,4.62
18,R19C,4.91
19,R19W,4.4
20,R19L,4.46
21,R19F,4.87
22,R19D,4.76
23,E22L,3.99
24,E22D,4.65
25,E22V,4.13
26,E22N,3.85

row,Variant,protein stability index
1,E22F,3.82
2,E22A,4.75
3,E22H,4.37
4,E22G,4.23
5,E22S,4.02
6,E22M,4.92
7,E22Y,3.58
8,E22T,4.11
9,E22K,3.99
10,E22I,4.03
11,E22P,4.16
12,E22W,4.01
13,E22Q,4.25
14,E22C,4.32
15,E22R,3.95
16,E15G,4.42
17,E15L,3.88
18,E15K,4.16
19,E15Q,4.4
20,E15V,3.8
21,E15P,3.99
22,E15Y,4.3
23,E15R,4.15
24,E15N,4.42
25,E15H,3.87
26,E15S,4.09

row,Variant,protein stability index
1,E15A,3.83
2,E15F,3.83
3,E15I,3.83
4,E15W,3.84
5,E15T,3.73
6,E15C,3.86
7,E15M,3.96
8,E15D,4.15
9,R24C,4.21
10,R24W,4.53
11,R24M,4.88
12,R24F,4.27
13,R24K,4.66
14,R24E,5.1
15,R24Q,4.71
16,R24H,4.83
17,R24A,4.69
18,R24D,4.71
19,R24Y,4.42
20,R24P,5.16
21,R24I,4.6
22,R24N,4.72
23,R24G,4.79
24,R24V,4.73
25,R24S,4.65
26,R24T,4.71

row,Variant,protein stability index
1,R24L,4.54
2,F17C,4.88
3,F17E,4.79
4,F17M,3.69
5,F17V,4.53
6,F17A,4.78
7,F17D,4.81
8,F17K,4.51
9,F17W,4.59
10,F17H,4.71
11,F17P,4.9
12,F17N,4.68
13,F17Y,4.86
14,F17Q,4.5
15,F17G,4.01
16,F17R,4.13
17,F17I,4.3
18,F17L,4.61
19,F17S,4.56
20,F17T,4.5

# Variants of: B2
# Assay: as above
# Conditions: c terminus: a fixed tail appended
row,Variant,protein stability index
1,C2I,3.35
2,C2Q,3.43
3,C2F,3.16
4,C2W,2.36
5,C2G,3.47
6,C2S,3.88
7,C2N,4.32
8,C2K,3.51
9,C2L,3.25
10,C2M,3.38
11,C2R,3.74
12,C2P,4.04
13,C2A,4.04
14,C2Y,3.23
15,C2T,3.54
16,C2H,3.71
17,C2V,3.93
18,C2D,3.81
19,C2E,4.84
20,D6Y,2.44
21,D6P,3.68
22,D6G,3.47

row,Variant,protein stability index
1,D6M,3.09
2,D6C,2.43
3,D6Q,3.44
4,D6W,2.09
5,D6L,3.06
6,D6F,2.51
7,D6H,3.08
8,D6R,3.16
9,D6A,2.76
10,D6S,3.01
11,D6E,3.56
12,D6K,2.75
13,D6V,2.38
14,D6T,3.2
15,D6I,2.96
16,D6N,2.29
17,R5A,4.37
18,R5W,2.62
19,R5K,3.77
20,R5L,3.5
21,R5V,3.5
22,R5C,2.65

row,Variant,protein stability index
1,R5E,3.58
2,R5H,2.86
3,R5S,3.8
4,R5P,3.98
5,R5Q,3.44
6,R5G,3.64
7,R5F,2.43
8,R5Y,2.92
9,R5M,3.6
10,R5D,4.21
11,R5T,3.48
12,R5I,2.71
13,R5N,3.33
14,A3P,4.03
15,A3W,3.21
16,A3R,2.97
17,A3H,2.98
18,A3S,3.64
19,A3F,2.52
20,A3G,3.38
21,A3D,3.96
22,A3K,3.7

row,Variant,protein stability index
1,A3V,3.52
2,A3E,3.65
3,A3I,3.21
4,A3L,3.14
5,A3Y,2.9
6,A3M,3.45
7,A3Q,4.01
8,A3T,3.63
9,A3C,2.84
10,A3N,3.38
11,N7W,2.52
12,N7F,2.78
13,N7P,3.4
14,N7K,3.06
15,N7D,3.41
16,N7I,3.22
17,N7E,3.55
18,N7H,3.63
19,N7M,3.35
20,N7Q,2.92
21,N7C,3.13
22,N7R,2.98

row,Variant,protein stability index
1,N7V,3.04
2,N7S,3.51
3,N7G,3.71
4,N7L,2.98
5,N7T,3.52
6,N7A,2.89
7,D4K,3.37
8,D4R,2.95
9,D4W,3.54
10,D4H,2.96
11,D4F,2.78
12,D4E,3.74
13,D4C,1.58
14,D4N,3.17
15,D4V,3.05
16,D4G,3.28
17,D4T,2.64
18,D4S,3.02
19,D4I,2.24
20,D4L,2.21
21,D4Y,2.44
22,D4Q,3.36

row,Variant,protein stability index
1,D4M,2.08
2,D4P,2.75
3,D4A,2.61
4,T1V,2.92
5,T1D,4.37
6,T1H,3.37
7,T1E,3.74
8,T1Q,4.05
9,T1Y,2.15
10,T1R,3.06
11,T1L,3.1
12,T1S,3.28
13,T1F,2.18
14,T1N,3.03
15,T1A,3.73
16,T1M,3.58
17,T1W,2.32
18,T1K,3.07
19,T1C,2.88
20,T1G,3.2
21,T1P,3.67
22,T1I,2.73

# Source: the supplement of paper PMC10567573
